The values below come from article PMC9353652 (Journal of the American Chemical Society, 2021).

Assay [1] concerns the target ATP-grasp ligase CdnC (Chryseobacterium gregarium DSM 19109). Put plainly: SEC. Background: In gel filtration, larger molecules generally elute earlier.

Consider ATP-grasp ligase CdnC (enzyme), for which the stoichiometry N (usually the number of molecules, sites or subunits per partner or assembly) in assay [1] is 2.
With “chryseoviridin (fully cyclized, full length core region of CdnA3) (peptide)”, the inhibition of chymotrypsin activity (protease inhibition assay) with chymotrypsin came out at 70 nM.
